Results taken from patent US20260167699A1 (Chugai, published 2026).

B1: GpH7-A5/GpH7-B3 variant K326_06M/GpL16-k0 (antibody, human IgG1, kappa)
heavy 1: not shown
heavy 2: not shown
light: DIVMTQSPLSLPVTPGEPASISCQASESLVHSNRNTYLHWYLQKPGQSPQLLIYKVSNRFSGVPDRFSGSGSGTDFTLKISRVEAEDVGVYYCSQNTHVPPTFGQGTKVEIERTVAAPSVFIFPPSDEQLKSGTASVVCLLNNFYPREAKVQWKVDNALQSGNSQESVTEQDSKDSTYSLSSTLTLSKADYEKHKVYACEVTHQGLSSPVTKSFNRGEC
notes: He Ab; copies: 1 + 1 + 2
B2: GpH7-A5/GpH7-B3 variant K326_07I/GpL16-k0 (antibody, human IgG1, kappa)
heavy 1: not shown
heavy 2: not shown
light: B1 light
notes: He Ab; copies: 1 + 1 + 2
B3: GpH7-A5/GpH7-B3 variant K326_08L/GpL16-k0 (antibody, human IgG1, kappa)
heavy 1: not shown
heavy 2: not shown
light: B1 light
notes: He Ab; copies: 1 + 1 + 2
B4: GpH7-A5/GpH7-B3 variant K326_09D/GpL16-k0 (antibody, human IgG1, kappa)
heavy 1: not shown
heavy 2: not shown
light: B1 light
notes: He Ab; copies: 1 + 1 + 2
B5: GpH7-A5/GpH7-B3 variant K326_10E/GpL16-k0 (antibody, human IgG1, kappa)
heavy 1: not shown
heavy 2: not shown
light: B1 light
notes: He Ab; copies: 1 + 1 + 2
B6: GpH7-A5/GpH7-B3 variant K326_12R/GpL16-k0 (antibody, human IgG1, kappa)
heavy 1: not shown
heavy 2: not shown
light: B1 light
notes: He Ab; copies: 1 + 1 + 2
B7: GpH7-A5/GpH7-B3 variant K326_13S/GpL16-k0 (antibody, human IgG1, kappa)
heavy 1: not shown
heavy 2: not shown
light: B1 light
notes: He Ab; copies: 1 + 1 + 2
B8: GpH7-A5/GpH7-B3 variant K326_14T/GpL16-k0 (antibody, human IgG1, kappa)
heavy 1: not shown
heavy 2: not shown
light: B1 light
notes: He Ab; copies: 1 + 1 + 2
B9: GpH7-A5/GpH7-B3 variant K326_15Y/GpL16-k0 (antibody, human IgG1, kappa)
heavy 1: not shown
heavy 2: not shown
light: B1 light
notes: He Ab; copies: 1 + 1 + 2
B10: GpH7-A5/GpH7-B3 variant K326_16H/GpL16-k0 (antibody, human IgG1, kappa)
heavy 1: not shown
heavy 2: not shown
light: B1 light
notes: He Ab; copies: 1 + 1 + 2
B11: GpH7-A5/GpH7-B3 variant K326_18N/GpL16-k0 (antibody, human IgG1, kappa)
heavy 1: not shown
heavy 2: not shown
light: B1 light
notes: He Ab; copies: 1 + 1 + 2
B12: GpH7-A5/GpH7-B3 variant K326_19Q/GpL16-k0 (antibody, human IgG1, kappa)
heavy 1: not shown
heavy 2: not shown
light: B1 light
notes: He Ab; copies: 1 + 1 + 2
B13: GpH7-A5/GpH7-B3 variant K326_20W/GpL16-k0 (antibody, human IgG1, kappa)
heavy 1: not shown
heavy 2: not shown
light: B1 light
notes: He Ab; copies: 1 + 1 + 2
B14: GpH7-A5/GpH7-B3 variant L234_01G/GpL16-k0 (antibody, human IgG1, kappa)
heavy 1: not shown
heavy 2: not shown
light: B1 light
notes: He Ab; copies: 1 + 1 + 2
B15: GpH7-A5/GpH7-B3 variant L234_02A/GpL16-k0 (antibody, human IgG1, kappa)
heavy 1: not shown
heavy 2: not shown
light: B1 light
notes: He Ab; copies: 1 + 1 + 2
B16: GpH7-A5/GpH7-B3 variant L234_03V/GpL16-k0 (antibody, human IgG1, kappa)
heavy 1: not shown
heavy 2: not shown
light: B1 light
notes: He Ab; copies: 1 + 1 + 2
B17: GpH7-A5/GpH7-B3 variant L234_04F/GpL16-k0 (antibody, human IgG1, kappa)
heavy 1: not shown
heavy 2: not shown
light: B1 light
notes: He Ab; copies: 1 + 1 + 2
B18: GpH7-A5/GpH7-B3 variant L234_05P/GpL16-k0 (antibody, human IgG1, kappa)
heavy 1: not shown
heavy 2: not shown
light: B1 light
notes: He Ab; copies: 1 + 1 + 2
B19: GpH7-A5/GpH7-B3 variant L234_06M/GpL16-k0 (antibody, human IgG1, kappa)
heavy 1: not shown
heavy 2: not shown
light: B1 light
notes: He Ab; copies: 1 + 1 + 2
B20: GpH7-A5/GpH7-B3 variant L234_07I/GpL16-k0 (antibody, human IgG1, kappa)
heavy 1: not shown
heavy 2: not shown
light: B1 light
notes: He Ab; copies: 1 + 1 + 2
B21: GpH7-A5/GpH7-B3 variant L234_09D/GpL16-k0 (antibody, human IgG1, kappa)
heavy 1: not shown
heavy 2: not shown
light: B1 light
notes: He Ab; copies: 1 + 1 + 2
B22: GpH7-A5/GpH7-B3 variant L234_10E/GpL16-k0 (antibody, human IgG1, kappa)
heavy 1: not shown
heavy 2: not shown
light: B1 light
notes: He Ab; copies: 1 + 1 + 2
B23: GpH7-A5/GpH7-B3 variant L234_13S/GpL16-k0 (antibody, human IgG1, kappa)
heavy 1: not shown
heavy 2: not shown
light: B1 light
notes: He Ab; copies: 1 + 1 + 2
B24: GpH7-A5/GpH7-B3 variant L234_14T/GpL16-k0 (antibody, human IgG1, kappa)
heavy 1: not shown
heavy 2: not shown
light: B1 light
notes: He Ab; copies: 1 + 1 + 2
B25: GpH7-A5/GpH7-B3 variant L234_15Y/GpL16-k0 (antibody, human IgG1, kappa)
heavy 1: not shown
heavy 2: not shown
light: B1 light
notes: He Ab; copies: 1 + 1 + 2
B26: GpH7-A5/GpH7-B3 variant L234_16H/GpL16-k0 (antibody, human IgG1, kappa)
heavy 1: not shown
heavy 2: not shown
light: B1 light
notes: He Ab; copies: 1 + 1 + 2
B27: GpH7-A5/GpH7-B3 variant L234_18N/GpL16-k0 (antibody, human IgG1, kappa)
heavy 1: not shown
heavy 2: not shown
light: B1 light
notes: He Ab; copies: 1 + 1 + 2
B28: GpH7-A5/GpH7-B3 variant L234_19Q/GpL16-k0 (antibody, human IgG1, kappa)
heavy 1: not shown
heavy 2: not shown
light: B1 light
notes: He Ab; copies: 1 + 1 + 2
B29: GpH7-A5/GpH7-B3 variant L234_20W/GpL16-k0 (antibody, human IgG1, kappa)
heavy 1: not shown
heavy 2: not shown
light: B1 light
notes: He Ab; copies: 1 + 1 + 2
B30: GpH7-A5/GpH7-B3 variant L235_01G/GpL16-k0 (antibody, human IgG1, kappa)
heavy 1: not shown
heavy 2: not shown
light: B1 light
notes: He Ab; copies: 1 + 1 + 2
B31: GpH7-A5/GpH7-B3 variant L235_02A/GpL16-k0 (antibody, human IgG1, kappa)
heavy 1: not shown
heavy 2: not shown
light: B1 light
notes: He Ab; copies: 1 + 1 + 2

target: T1, FcγRIIIa extracellular domain, C-terminal His tag (human, UniProt P08637 17-208); experiment: SPR, binding activity relative to GpH7-A5/GpH7-B3/GpL16-k0 (=100)
T1 construct: extracellular domain; also called 3a
T1 sequence (P08637 other isoform, or with tags, fused parts or gaps): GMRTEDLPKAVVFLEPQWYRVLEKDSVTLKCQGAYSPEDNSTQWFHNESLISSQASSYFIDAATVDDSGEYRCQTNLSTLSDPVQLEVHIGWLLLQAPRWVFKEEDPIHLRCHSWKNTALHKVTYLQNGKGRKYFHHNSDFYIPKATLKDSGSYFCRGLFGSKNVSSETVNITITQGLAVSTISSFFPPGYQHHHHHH

Compared with B1, B2 is higher in “He/Con 3a” value: 127% for the first, 153% for the second.

Going from B3 to B4, the “He/Con 3a” value rises from 126% to 148%.

Compared with B5, B6 is lower in “He/Con 3a” value: 138% for the first, 101% for the second.

Compared with B7, B8 is higher in “He/Con 3a” value: 118% for the first, 140% for the second.

First: B9
Second: B10
The “He/Con 3a” value of the first is higher: 124% for the first, 106% for the second.

Compared with B11, B12 is lower in “He/Con 3a” value: 134% for the first, 117% for the second.

Compared with B13, B14 is lower in “He/Con 3a” value: 93.7% for the first, 55.8% for the second.

Compared with B15, B16 is higher in “He/Con 3a” value: 69.7% for the first, 88.3% for the second.

Going from B17 to B18, the “He/Con 3a” value falls from 114% to 85.1%.

First: B19
Second: B20
The “He/Con 3a” value of the first is lower: 82.9% for the first, 99.5% for the second.

First: B21
Second: B22
The “He/Con 3a” value of the first is higher: 113% for the first, 111% for the second.

Going from B23 to B24, the “He/Con 3a” value rises from 68.1% to 69.8%.

Compared with B25, B26 is lower in “He/Con 3a” value: 126% for the first, 76.8% for the second.

Compared with B27, B28 is lower in “He/Con 3a” value: 88.2% for the first, 77.1% for the second.

Going from B29 to B30, the “He/Con 3a” value falls from 103% to 56.7%.

In the case of B31, the “He/Con 3a” value is reported as 72%.
